In assay [1] the target is T1, recombinant human LAG-3 fusion protein (human, UniProt P18627).
T1 chain: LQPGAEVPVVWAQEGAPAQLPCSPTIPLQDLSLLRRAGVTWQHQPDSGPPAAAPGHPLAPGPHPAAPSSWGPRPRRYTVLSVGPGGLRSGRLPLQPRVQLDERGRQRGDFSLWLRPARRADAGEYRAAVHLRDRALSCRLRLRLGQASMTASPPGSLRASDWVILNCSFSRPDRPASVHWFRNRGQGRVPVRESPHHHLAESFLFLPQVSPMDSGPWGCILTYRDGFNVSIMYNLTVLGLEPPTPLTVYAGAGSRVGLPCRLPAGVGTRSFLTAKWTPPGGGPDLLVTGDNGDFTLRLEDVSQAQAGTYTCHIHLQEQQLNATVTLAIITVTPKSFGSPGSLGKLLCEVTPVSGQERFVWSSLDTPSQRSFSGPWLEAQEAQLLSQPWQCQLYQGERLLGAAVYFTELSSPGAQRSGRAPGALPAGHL
Briefly: SPR. In general terms: SPR reads the build-up and loss of mass on a sensor chip optically.

Assay [2] has as its target T2, human LAG-3 (cell surface) (human, UniProt P18627).
T2 chain: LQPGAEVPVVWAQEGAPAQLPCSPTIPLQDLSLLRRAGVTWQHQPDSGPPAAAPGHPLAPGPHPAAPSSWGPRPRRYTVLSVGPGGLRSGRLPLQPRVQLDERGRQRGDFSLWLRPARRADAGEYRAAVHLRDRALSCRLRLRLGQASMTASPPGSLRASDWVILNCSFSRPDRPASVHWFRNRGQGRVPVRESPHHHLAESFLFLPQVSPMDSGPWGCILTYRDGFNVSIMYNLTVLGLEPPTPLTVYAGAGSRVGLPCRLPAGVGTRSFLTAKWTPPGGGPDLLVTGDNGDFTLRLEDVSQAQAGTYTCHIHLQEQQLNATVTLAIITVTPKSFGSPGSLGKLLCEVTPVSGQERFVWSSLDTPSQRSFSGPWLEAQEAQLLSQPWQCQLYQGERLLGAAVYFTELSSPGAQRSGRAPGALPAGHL
Kind of assay: FACS, CHO-human LAG-3. For orientation: A flow cytometer gives signals particle by particle.

Broadly, the Kd is the concentration at which binding is half-saturated. As a reminder, the EC50 is the concentration giving half of the maximal effect.

B1: 17E5 (antibody)
chain 1: not shown
chain 2: EIVLTQSPATLSLSPGERATLSCRASQSVSSYLAWYQQKPGQAPRLLIYDASNRATGIPARFSGSGSGTDFTLTISSLEPEDFAVYYCQQRSNWPITFGQGTRLEIK
As for B1, the Kd in assay [1] worked out at 4.53 nM. This molecule also had an EC50 in assay [2] of 12.3 nM.

For the origin of these results see patent publication US11236163.
